According to patent US20240327506A1, “METHODS AND COMPOSITION FOR THE SELECTIVE ENHANCEMENT OF ADOPTIVE CELL THERAPY” (MaineHealth, priority 2023, published 2024):

Molecular target: T1, β3 integrin (Mus musculus, UniProt O54890+P43406)
T1 construct: we isolated primary CD8+ T-cells from melanoma bearing mice; endogenous in cells; host or cells: primary CD8+ T-cells isolated from melanoma bearing mice
T1 sequence (O54890 26-787): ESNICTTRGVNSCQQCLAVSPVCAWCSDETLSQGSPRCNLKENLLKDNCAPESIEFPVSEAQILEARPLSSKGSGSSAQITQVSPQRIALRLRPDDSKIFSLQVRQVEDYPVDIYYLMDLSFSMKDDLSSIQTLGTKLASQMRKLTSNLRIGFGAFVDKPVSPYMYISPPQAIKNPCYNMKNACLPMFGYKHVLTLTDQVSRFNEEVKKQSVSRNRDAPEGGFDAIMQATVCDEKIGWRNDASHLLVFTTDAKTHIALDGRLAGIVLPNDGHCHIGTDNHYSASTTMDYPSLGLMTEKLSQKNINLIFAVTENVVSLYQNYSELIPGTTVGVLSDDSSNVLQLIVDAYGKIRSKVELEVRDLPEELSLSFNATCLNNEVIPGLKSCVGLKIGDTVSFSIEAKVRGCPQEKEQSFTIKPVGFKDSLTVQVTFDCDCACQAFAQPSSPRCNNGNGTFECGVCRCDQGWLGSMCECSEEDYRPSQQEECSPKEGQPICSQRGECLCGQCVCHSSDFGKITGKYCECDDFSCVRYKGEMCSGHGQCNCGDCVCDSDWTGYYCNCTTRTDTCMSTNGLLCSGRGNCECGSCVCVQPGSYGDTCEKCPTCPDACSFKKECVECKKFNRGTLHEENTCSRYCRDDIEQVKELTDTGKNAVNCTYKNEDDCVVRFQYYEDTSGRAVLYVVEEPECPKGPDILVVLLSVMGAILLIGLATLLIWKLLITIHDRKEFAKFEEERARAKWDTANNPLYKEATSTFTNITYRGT
T1 sequence (P43406 31-885 limits assumed): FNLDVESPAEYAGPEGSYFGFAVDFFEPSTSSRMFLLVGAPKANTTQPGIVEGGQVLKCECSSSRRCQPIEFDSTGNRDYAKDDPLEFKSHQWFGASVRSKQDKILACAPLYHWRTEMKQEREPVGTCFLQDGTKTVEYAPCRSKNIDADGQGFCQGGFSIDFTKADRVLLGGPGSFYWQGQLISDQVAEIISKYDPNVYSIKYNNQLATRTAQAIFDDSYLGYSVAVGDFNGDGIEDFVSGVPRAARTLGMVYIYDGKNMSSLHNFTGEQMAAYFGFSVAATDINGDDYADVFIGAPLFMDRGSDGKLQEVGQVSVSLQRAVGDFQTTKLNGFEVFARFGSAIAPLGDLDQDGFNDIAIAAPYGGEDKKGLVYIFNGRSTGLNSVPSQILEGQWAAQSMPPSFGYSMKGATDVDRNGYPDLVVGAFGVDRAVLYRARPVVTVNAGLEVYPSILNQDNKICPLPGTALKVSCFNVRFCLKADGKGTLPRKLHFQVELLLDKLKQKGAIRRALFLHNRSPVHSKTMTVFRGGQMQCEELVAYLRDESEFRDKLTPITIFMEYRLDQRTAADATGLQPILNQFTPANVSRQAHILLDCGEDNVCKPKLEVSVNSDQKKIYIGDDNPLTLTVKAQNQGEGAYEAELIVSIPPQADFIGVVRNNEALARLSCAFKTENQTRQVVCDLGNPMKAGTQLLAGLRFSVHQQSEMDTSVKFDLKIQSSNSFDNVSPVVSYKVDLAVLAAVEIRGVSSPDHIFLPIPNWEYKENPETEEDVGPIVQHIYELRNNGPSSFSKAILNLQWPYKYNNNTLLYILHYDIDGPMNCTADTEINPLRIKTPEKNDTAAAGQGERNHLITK
T1 sequence (P43406 887-1044 partner limits assumed): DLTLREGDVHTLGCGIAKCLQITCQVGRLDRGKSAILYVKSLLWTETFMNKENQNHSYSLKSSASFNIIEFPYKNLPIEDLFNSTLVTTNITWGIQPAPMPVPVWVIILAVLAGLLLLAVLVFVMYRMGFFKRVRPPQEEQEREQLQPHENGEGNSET
Experiment: Western blot of β3 integrin phosphorylation in primary CD8+ T-cells after peptide stimulation
Assay type: cell-based, murine
Details: primary CD8+ T-cells from melanoma bearing mice, compared to control peptide CP
Experimental: FIGS. 2A-2F. Detection of RGDKGE (SEQ ID NO: 1)-containing collagen peptide in malignant tumor cells and expression of key signaling molecules in T-cells. Briefly, whole cell lysates and serum free concentrated conditioned medium was prepared from tumor cells lines. FIG. 2A. Western blot analysis of whole cell lysates from human C8161 and murine B16F10 melanoma cells for the expression of the low molecular weight 16 kDa RGDKGE (SEQ ID NO: 1)-containing collagen peptide (XL313) or actin as a loading control. FIG. 2B. […]
Whole cell and CAM tissue lysates were collected in RIPA buffer (10 mM Tris-HCl, pH 8.0; 1 mM EDTA; 0.5 mM EGTA; 1% Triton X-100; 0.1% Sodium Deoxycholate; 0.1% SDS; 140 mM NaCl) supplemented with 1× protease inhibitor and 1× phosphatase inhibitor and were run on polyacrylamide gels using denaturing conditions. […] Western blot bands were quantified using Image J software based on pixel intensity.
We previously made the surprising observation that a small bioactive collagen peptide containing the core amino acid sequence RGDKGE (SEQ ID NO: 1) could be generated inside a subset of M2-like activated macrophages as well as a variety of other malignant tumor cells, and then actively secreted outside the cells (11-13). Importantly, minimal levels of this soluble collagen peptide was detected in normal cells (13). […]

β3 integrin phosphorylation: enhanced β3 integrin phosphorylation
Sequence: QGPRGDKGE (CQGPRGDKGEC; Synthetic: Synthetic collagen RGD containing peptide P-2) [Peptide P2, synthetic version of the soluble RGDKGE-containing collagen peptide]
